This note sets out measurements from PMC9963277 (Proceedings of the National Academy of Sciences of the …, 2023).

First the molecules themselves.
B3: E. coli ClpX (containing a neutral K408E mutation) (enzyme)
chain: not shown

The target in data set [1] is B3. Put plainly: cryo-EM structure.
Data set [2] concerns the molecule itself. Put plainly: cryo-EM structure.

B1: E. coli ClpP (enzyme)
chain: not shown
With B1, the binding result in data set [1] and in data set [2] was “binds” throughout.

B2: E. coli SspB (natural protein)
chain: MDLSQLTPRRPYLLRAFYEWLLDNQLTPHLVVDVTLPGVQVPMEYARDGQIVLNIAPRAVGNLELANDEVRFNARFGGIPRQVSVPLAAVLAIYARENGAGTMFEPEAAYDEDTSIMNDEEASADNETVMSVIDGDKPDHDDDTHPDDEPPQPPRGGRPALRVVK
Consider B2, for which the binding result in data set [1] is given as “binds”.
In the case of B3, in data set [2], the binding result is listed as “binds”.
